Measurements published in patent publication US20080008719A1 (Alexion, published 2008).
Changes are numbered by the printed parent chain.

B1: Fab 25A11 (murine Fab) (Fab, V domains shown)
VH: EVQLQQPGAELVKPGASVKMSCKASGYTFTSYYMYWVKQRPGQGLEWIGEINPSHGGTNFNEKFKNKATLTVDKSSSTVYMQLSSLTSEDSAVYYCTRGGNYPYFAMDYWGQGTSVTVSS
VL: DIQMTQTTSSLSASLGDRVTISCRASQDISNYLNWYQQKPDGTVKLLIYYTSRLHSGVPSRFSGSGSGTDYSLTISNLEQEDIATYFCQQGNTLPWTFGGGTKLEIKR
B2: Fab 23E9 (Fab, V domains shown)
VH: EVELQQSGAELVKPGASVKLSCKASGYTFTNYYMHWVKQRPGQGLEWIGEINPSSGGTNFNEKFKSKATLTVDKSSSTAYMQLSSLTSEDSAVYYCTRFDRTENGMDYWGQGTSVTVSS
VL: DNVLTQSPASLAVSPGQRATISCKASQSVDYDGDNYMNWYQQKPGQPPKLLIYAASNLESGIPARFSGSGSGTDFTLNIHPVEEEDAATYFCQQSDEDPYTFGGGTKLEIKR
B3: Fab 61E10 (Fab, V domains shown)
VH: B2 VH with E3Q, M106L
VL: B2 VL with N2I, L4M, P15L, F91Y, D96N, E97G, Y100W
B4: Fab 84H7 (Fab, V domains shown)
VH: EVQLQQSGAVLLKPGASVKLSCTASGFNIKDTYIHWMKQRPEQGLEWIGRIDPADGNTKYDPKFQGKATITADTSSNTAYLQLSSLTSEDTAVYYCTTAFYYSMDYWGQGTSVTVSS
VL: DIVLTQSQKFMSTSVGDRVSVTCKASQNVGTNVAWYQQKPGQSPKALIYSASYRYSGVPDRFTGSGSGTDFTLTISNVQSEDLAEYFCQQYNSYPRTFGGGTKLEIKR
notes: also called 84H7 (63C10)
B5: Fab 36C1 (Fab, V domains shown)
VH: B4 VH with V10E, L12V, K38N, G66D, Q82H
VL: B4 VL with L4M, K39T, S76N, K103T

Legend:
[1] = biological target: CUB-domain-containing protein 1 (CDCP1) (human) (UniProt Q9H5V8); assay: flow cytometry on PC-3 cells
[2] = biological target: T1, Integrin alpha3/beta1 (human, UniProt P26006 33-1051; P05556 21-798); assay: immunoprecipitation from PC-3 membrane lysate with biotinylated Fab, mass spectrometry
T1 construct: also called α3β1
T1 sequence (P26006 33-1051 limits assumed, chain 1 of 2): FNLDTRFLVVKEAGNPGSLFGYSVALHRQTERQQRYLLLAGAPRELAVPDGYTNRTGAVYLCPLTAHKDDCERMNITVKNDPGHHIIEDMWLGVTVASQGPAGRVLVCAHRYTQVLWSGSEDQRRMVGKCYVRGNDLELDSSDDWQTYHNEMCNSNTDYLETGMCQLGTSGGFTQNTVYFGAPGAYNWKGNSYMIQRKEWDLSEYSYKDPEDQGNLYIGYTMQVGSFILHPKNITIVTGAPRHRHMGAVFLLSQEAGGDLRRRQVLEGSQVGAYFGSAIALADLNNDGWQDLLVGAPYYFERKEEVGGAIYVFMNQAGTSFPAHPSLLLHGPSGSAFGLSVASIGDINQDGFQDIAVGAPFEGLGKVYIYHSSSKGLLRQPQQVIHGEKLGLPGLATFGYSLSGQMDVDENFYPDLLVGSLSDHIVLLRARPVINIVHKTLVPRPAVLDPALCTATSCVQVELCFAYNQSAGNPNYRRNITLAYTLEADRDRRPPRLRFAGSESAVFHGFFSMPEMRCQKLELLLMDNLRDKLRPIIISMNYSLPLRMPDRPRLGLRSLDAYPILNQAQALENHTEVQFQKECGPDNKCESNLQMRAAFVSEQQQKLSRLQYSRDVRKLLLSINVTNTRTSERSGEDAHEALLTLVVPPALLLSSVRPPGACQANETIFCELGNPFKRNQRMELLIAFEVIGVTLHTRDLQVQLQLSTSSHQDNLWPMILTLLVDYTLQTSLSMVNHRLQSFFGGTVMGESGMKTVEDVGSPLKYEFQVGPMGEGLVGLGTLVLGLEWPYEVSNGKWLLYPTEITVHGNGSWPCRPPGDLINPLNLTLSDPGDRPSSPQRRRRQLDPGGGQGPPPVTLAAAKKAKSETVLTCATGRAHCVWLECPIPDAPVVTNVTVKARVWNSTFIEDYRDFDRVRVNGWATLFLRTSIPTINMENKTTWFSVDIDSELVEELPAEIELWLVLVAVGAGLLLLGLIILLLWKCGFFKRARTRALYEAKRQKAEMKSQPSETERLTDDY
T1 sequence (P05556 21-798 limits assumed, chain 2 of 2): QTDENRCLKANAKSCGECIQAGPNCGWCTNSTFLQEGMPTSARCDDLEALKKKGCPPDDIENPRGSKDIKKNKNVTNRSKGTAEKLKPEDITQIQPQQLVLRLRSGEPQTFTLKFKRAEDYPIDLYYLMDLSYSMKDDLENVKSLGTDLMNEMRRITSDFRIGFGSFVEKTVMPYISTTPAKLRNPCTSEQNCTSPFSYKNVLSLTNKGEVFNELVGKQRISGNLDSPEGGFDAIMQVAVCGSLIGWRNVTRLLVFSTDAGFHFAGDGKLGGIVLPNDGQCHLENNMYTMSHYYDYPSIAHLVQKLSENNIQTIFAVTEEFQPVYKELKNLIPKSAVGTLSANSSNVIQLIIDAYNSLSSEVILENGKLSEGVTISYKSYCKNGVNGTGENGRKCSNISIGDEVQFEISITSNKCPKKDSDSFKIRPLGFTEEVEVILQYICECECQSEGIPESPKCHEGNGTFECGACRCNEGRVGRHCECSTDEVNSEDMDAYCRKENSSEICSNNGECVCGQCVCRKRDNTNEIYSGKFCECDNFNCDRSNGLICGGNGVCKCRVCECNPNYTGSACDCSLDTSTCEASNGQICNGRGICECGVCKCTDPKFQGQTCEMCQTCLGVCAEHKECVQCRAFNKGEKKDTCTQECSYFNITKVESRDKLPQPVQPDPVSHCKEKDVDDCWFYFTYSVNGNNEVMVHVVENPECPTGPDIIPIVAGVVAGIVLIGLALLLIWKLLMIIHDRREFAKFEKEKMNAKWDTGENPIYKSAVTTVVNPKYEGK
Method: PC-3 cell membranes (10⁸ cell equivalents/mL) in Nonidet P-40 Lysis Buffer (1% Nonidet P-40, 50 mM Tris.HCl pH 7.5, 0.15 M NaCl, 10% glycerol plus Complete Protease Inhibitors) were incubated with 50 μg/mL chicken egg white avidin for 30 min on ice. Insoluble material was removed by centrifugation for 30 min at 150,000 g. The lysate was precleared with normal rabbit serum and protein G Sepharose beads (Amersham-Pharmacia, Piscataway, N.J.). Antigens were captured by adding biotinylated Fabs (10 μg/mL) to the lysate and incubating overnight at 4° C. Immobilized streptavidin was added (50 μL of packed beads per mL) for 3 h at 4° C. with gentle mixing, followed by five washes with Nonidet P-40 Lysis Buffer. After SDS-PAGE separation, antigen bands were cut from the gel.

Binder	percent saturation of PC-3 cells at 160 nM Fab [1] [%]	binding result [2]
B1	80	
B2		binds
B3		binds
B4		binds
B5		binds
